B1: PR000511 (antibody, human IgG1, lambda, L234A L235A, V domains shown)
VH: EVQLLESGGGLVQPGGSLRLSCAASGFTFNTYAMNWVRQAPGKGLEWVSRIRSKYNNYATYYADSVKDRFTISRDDSKSTLYLQMNSLRAEDTAVYYCVRHGNFGNSYVSWFAYWGQGTLVTVSS
VL: QAVVTQEPSLTVSPGGTVTLTCRSSTGAVTTSNYANWVQQKPGQAPRGLIGGTNKRAPWTPARFSGSLLGDKAALTLLGAQPEDEAEYFCALWYSNLWVFGGGTKLTVLG
notes: humanized SP34 variant, IgG1 LALA; also called VH3231/VL7461 IgG
B2: PR000513 (antibody, human IgG1, kappa, L234A L235A, V domains shown)
VH: EVQLLESGGGLVQPGGSLRLSCAASGFTFNTYAMNWVRQAPGKGLEWVSRIRSKYNNYATYYADSVKDRFTISRDDSKSTLYLQMNSLRAEDTAVYYCVRHGNFGNSYVSWFAYWGQGTLVTVSS
VL: DAQMTQSPSSLSASVGDRVTITCRSSTGAVTTSNYANWVQQKPGKAPKGLIGGTNKRAPGVPSRFSGSLSGDDATLTISSLQPEDFATYFCALWYSNLWVFGGGTKVEIKR
notes: humanized SP34 variant, IgG1 LALA; also called VH3231/VK1393 IgG
B3: PR001848 (antibody, human IgG1, lambda, L234A L235A, V domains shown)
VH: EVQLLESGGGLVQPGGSLRLSCAASGFTFSTYAMNWVRQAPGKGLEWVSRIRSKYNNYATYYADSVKDRFTISRDDSKSTLYLQMNSLRAEDTAVYYCVRHGNFGNSYVSWFAYWGQGTLVTVSS
VL: QAVVTQEPSLTVSPGGTVTLTCRSSTGAVTTSNYANWVQQKPGQAPRGLIGGTNKRAPWTPARFSGSLLGDKAALTLLGAQPEDEAEYFCALWYSNLWVFGGGTKLTVLG
notes: humanized SP34 variant, IgG1 LALAPG; also called VH3232/VL7461 IgG
B4: PR002472 (antibody, human IgG1, kappa, L234A L235A, V domains shown)
VH: EVQLLESGGGLVQPGGSLRLSCAASGFTFNTYAMNWVRQAPGKGLEWVSRIRSKYNNYATYYADSVKDRFTISRDNSKNTLYLQMNSLRAEDTAVYYCAKHGNFGNSYVSWFAYWGQGTLVTVSS
VL: DAQMTQSPSSLSASVGDRVTITCRSSTGAVTTSNYANWVQQKPGKAPKGLIGGTNKRAPGVPSRFSGSLSGDDATLTISSLQPEDFATYFCALWYSNLWVFGGGTKVEIKR
notes: humanized SP34 variant, IgG1 LALA; very low expression yield; also called VH3230/VK1393 IgG
B5: PR002742 (antibody, human IgG1, lambda, L234A L235A, V domains shown)
VH: EVQLVESGGGLVQPGGSLKLSCAASGFTFNTYAMNWVRQASGKGLEWVGRIRSKYNNYATYYADSVKDRFTISRDDSKNTAYLQMNSLKTEDTAVYYCTRHGNFGNSYVSWFAYWGQGTLVTVSS
VL: QAVVTQEPSLTVSPGGTVTLTCRSSTGAVTTSNYANWVQQKPGQAPRGLIGGTNKRAPWTPARFSGSLLGDKAALTLLGAQPEDEAEYFCALWYSNLWVFGGGTKLTVLG
notes: humanized SP34 variant, IgG1 LALA; also called VH3730/VL7461 IgG
B6: PR002833 (antibody, human IgG1, lambda, L234A L235A, V domains shown)
VH: EVQLLESGGGLVQPGGSLRLSCAASGFTFSTYAMNWVRQAPGKGLEWVSRIRSKYNNYATYYADSVKDRFTISRDNSKNTLYLQMNSLRAEDTAVYYCVRHGNFGNSYVSWFAYWGQGTLVTVSS
VL: QAVVTQEPSLTVSPGGTVTLTCRSSTGAVTTSNYANWVQQKPGQAPRGLIGGTNKRAPWTPARFSGSLLGDKAALTLLGAQPEDEAEYFCALWYSNLWVFGGGTKLTVLG
notes: humanized SP34 variant, IgG1 LALAPG; also called VH3234/VL7461 IgG
B7: PR002835 (antibody, human IgG1, lambda, L234A L235A, V domains shown)
VH: EVQLLESGGGLVQPGGSLRLSCAASGFTFSTYAMNWVRQAPGKGLEWVSRIRSKYNNYATYYADSVKDRFTISRDNSKSTLYLQMNSLRAEDTAVYYCARHGNFGNSYVSWFAYWGQGTLVTVSS
VL: QAVVTQEPSLTVSPGGTVTLTCRSSTGAVTTSNYANWVQQKPGQAPRGLIGGTNKRAPWTPARFSGSLLGDKAALTLLGAQPEDEAEYFCALWYSNLWVFGGGTKLTVLG
notes: humanized SP34 variant, IgG1 LALAPG; also called VH3236/VL7461 IgG
B8: PR002469 (antibody, human IgG1, lambda, L234A L235A, V domains shown)
VH: EVQLLESGGGLVQPGGSLRLSCAASGFTFNTYAMNWVRQAPGKGLEWVSRIRSKYNNYATYYADSVKDRFTISRDNSKNTLYLQMNSLRAEDTAVYYCAKHGNFGNSYVSWFAYWGQGTLVTVSS
VL: QAVVTQEPSLTVSPGGTVTLTCRSSTGAVTTSNYANWVQQKPGQAPRGLIGGTNKRAPWTPARFSGSLLGDKAALTLLGAQPEDEAEYFCALWYSNLWVFGGGTKLTVLG
notes: humanized SP34 variant, IgG1 LALA; also called VH3230/VL7461 IgG
B9: PR003886 (antibody, human IgG1, lambda, L234A L235A, V domains shown)
VH: EVQLVESGGGLVQPGGSLKLSCAASGFTFSTYAMNWVRQASGKGLEWVGRIRSKYNNYATYYADSVKDRFTISRDDSKNTAYLQMNSLKTEDTAVYYCTRHGNFGNSYVSWFAYWGQGTLVTVSS
VL: QAVVTQEPSLTVSPGGTVTLTCRSSTGAVTTSNYANWVQQKPGQAPRGLIGGTNKRAPWTPARFSGSLLGDKAALTLLGAQPEDEAEYFCALWYSNLWVFGGGTKLTVLG
notes: humanized SP34 variant, IgG1 LALA; also called VH3735/VL7461 IgG
B10: PR002834 (antibody, human IgG1, lambda, L234A L235A, V domains shown)
VH: EVQLLESGGGLVQPGGSLRLSCAASGFTFSTYAMNWVRQAPGKGLEWVSRIRSKYNNYATYYADSVKDRFTISRDDSKSTLYLQMNSLRAEDTAVYYCAKHGNFGNSYVSWFAYWGQGTLVTVSS
VL: QAVVTQEPSLTVSPGGTVTLTCRSSTGAVTTSNYANWVQQKPGQAPRGLIGGTNKRAPWTPARFSGSLLGDKAALTLLGAQPEDEAEYFCALWYSNLWVFGGGTKLTVLG
notes: humanized SP34 variant, IgG1 LALAPG; also called VH3235/VL7461 IgG
B11: PR000512 (antibody, human IgG1, lambda, L234A L235A, V domains shown)
VH: EVQLVESGGGLVQPGGSLKLSCAASGFTFNTYAMNWVRQASGKGLEWVGRIRSKYNNYATYYADSVKDRFTISRDDSKSTLYLQMNSLKTEDTAVYYCVRHGNFGNSYVSWFAYWGQGTLVTVSS
VL: QAVVTQEPSLTVSPGGTVTLTCRSSTGAVTTSNYANWVQQKPGQAPRGLIGGTNKRAPWTPARFSGSLLGDKAALTLLGAQPEDEAEYFCALWYSNLWVFGGGTKLTVLG
notes: humanized SP34 variant, IgG1 LALA; also called VH3731/VL7461 IgG
B12: PR002836 (antibody, human IgG1, lambda, L234A L235A, V domains shown)
VH: EVQLVESGGGLVQPGGSLKLSCAASGFTFSTYAMNWVRQASGKGLEWVGRIRSKYNNYATYYADSVKDRFTISRDDSKSTLYLQMNSLKTEDTAVYYCTRHGNFGNSYVSWFAYWGQGTLVTVSS
VL: QAVVTQEPSLTVSPGGTVTLTCRSSTGAVTTSNYANWVQQKPGQAPRGLIGGTNKRAPWTPARFSGSLLGDKAALTLLGAQPEDEAEYFCALWYSNLWVFGGGTKLTVLG
notes: humanized SP34 variant, IgG1 LALAPG; also called VH3733/VL7461 IgG
B13: PR000514 (antibody, human IgG1, kappa, L234A L235A, V domains shown)
VH: EVQLVESGGGLVQPGGSLKLSCAASGFTFNTYAMNWVRQASGKGLEWVGRIRSKYNNYATYYADSVKDRFTISRDDSKSTLYLQMNSLKTEDTAVYYCVRHGNFGNSYVSWFAYWGQGTLVTVSS
VL: DAQMTQSPSSLSASVGDRVTITCRSSTGAVTTSNYANWVQQKPGKAPKGLIGGTNKRAPGVPSRFSGSLSGDDATLTISSLQPEDFATYFCALWYSNLWVFGGGTKVEIKR
notes: humanized SP34 variant, IgG1 LALA; also called VH3731/VK1393 IgG
B14: PR004616 (antibody, human IgG1, lambda, L234A L235A, V domains shown)
VH: EVQLLESGGGLVQPGGSLRLSCAASGFTFSTYAMNWVRQAPGKGLEWVSRIRSKYNNYATYYADSVKDRFTISRDNSKNTLYLQMNSLRAEDTAVYYCAKHGNFGNSYVSWFAYWGQGTLVTVSS
VL: QAVVTQEPSLTVSPGGTVTLTCRSSTGAVTTSNYANWVQQKPGQAPRGLIGGTNKRAPWTPARFSGSLLGDKAALTLLGAQPEDEAEYFCALWYSNLWVFGGGTKLTVLG
notes: humanized SP34 variant, IgG1 LALA; also called VH3233/VL7461 IgG
B15: PR002837 (antibody, human IgG1, lambda, L234A L235A, V domains shown)
VH: EVQLVESGGGLVQPGGSLKLSCAASGFTFSTYAMNWVRQASGKGLEWVGRIRSKYNNYATYYADSVKDRFTISRDDSKNTAYLQMNSLKTEDTAVYYCVRHGNFGNSYVSWFAYWGQGTLVTVSS
VL: QAVVTQEPSLTVSPGGTVTLTCRSSTGAVTTSNYANWVQQKPGQAPRGLIGGTNKRAPWTPARFSGSLLGDKAALTLLGAQPEDEAEYFCALWYSNLWVFGGGTKLTVLG
notes: humanized SP34 variant, IgG1 LALAPG; also called VH3734/VL7461 IgG
B16: PR001849 (antibody, human IgG1, lambda, L234A L235A, V domains shown)
VH: EVQLVESGGGLVQPGGSLKLSCAASGFTFSTYAMNWVRQASGKGLEWVGRIRSKYNNYATYYADSVKDRFTISRDDSKSTLYLQMNSLKTEDTAVYYCVRHGNFGNSYVSWFAYWGQGTLVTVSS
VL: QAVVTQEPSLTVSPGGTVTLTCRSSTGAVTTSNYANWVQQKPGQAPRGLIGGTNKRAPWTPARFSGSLLGDKAALTLLGAQPEDEAEYFCALWYSNLWVFGGGTKLTVLG
notes: humanized SP34 variant, IgG1 LALAPG; also called VH3732/VL7461 IgG

The assay deals with T1, human CD3 (human, UniProt P07766 23-207; P09693 23-182; P04234 22-171; P20963 22-164).
T1 construct: whole, on cells; SP34 is described as an anti-human CD3e antibody; also called human TCR/CD3 complex; CD3 on human pan-T cells
T1 sequence (P07766 23-207, chain 1 of 4): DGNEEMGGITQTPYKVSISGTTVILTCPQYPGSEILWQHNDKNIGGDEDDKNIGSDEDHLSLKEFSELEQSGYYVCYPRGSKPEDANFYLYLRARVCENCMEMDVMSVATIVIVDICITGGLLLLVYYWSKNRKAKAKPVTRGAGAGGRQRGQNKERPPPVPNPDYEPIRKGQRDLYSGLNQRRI
T1 sequence (P09693 23-182, chain 2 of 4): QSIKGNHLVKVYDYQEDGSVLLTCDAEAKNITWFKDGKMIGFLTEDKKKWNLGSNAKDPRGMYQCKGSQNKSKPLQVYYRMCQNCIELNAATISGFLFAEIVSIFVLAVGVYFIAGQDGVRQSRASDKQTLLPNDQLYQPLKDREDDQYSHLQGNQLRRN
T1 sequence (P04234 22-171, chain 3 of 4): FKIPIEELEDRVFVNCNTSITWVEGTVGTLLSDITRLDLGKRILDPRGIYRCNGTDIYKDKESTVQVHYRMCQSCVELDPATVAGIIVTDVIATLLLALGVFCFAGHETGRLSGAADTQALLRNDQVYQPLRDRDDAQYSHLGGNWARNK
T1 sequence (P20963 22-164, chain 4 of 4): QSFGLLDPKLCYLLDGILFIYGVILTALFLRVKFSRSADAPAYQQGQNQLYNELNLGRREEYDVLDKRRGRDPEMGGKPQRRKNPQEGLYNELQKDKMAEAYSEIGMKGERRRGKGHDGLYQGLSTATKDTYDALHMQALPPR
The assay is described as follows: flow cytometry on human pan-T cells; MFI at 7.4 or 10 µg/ml relative to PR000260. From the text: The flow cytometryFACS was used to analyse the binding of the CD3 antibody to CD3-expressing cells, where the CD3-expressing cells could be: CHOK1 cells overexpressing human CD3 or HEK 293 cells (plasmids encoding the ORF of γ, δ, ε, and ζ chains of human-derived CD3 and plasmids encoding the ORF of α and β chains of human TCR were co-transfected with host cells CHOK1 (ATCC, CCL-61) or HEK293 (ATCC, CRL-1573) to construct stable cell lines expressing the structure of the human TCR/CD3 complex); CHOK1 or HEK293 cells overexpressing cynomolgus monkey CD3; human pan-T cells (isolated with the human pan-T cell isolation kit (Miltenyi, #130-096-535) from PBMC); cynomolgus monkey pan-T cells. Specifically, the collected cells were washed twice with PBS containing 2% FBS (FACS buffer), and resuspended with FACS buffer, divided into 96 well plates with 1×10⁵ cells per well, centrifuged at 500 g for 5 minutes. The supernatant was discarded, and 100 μl of pre-gradient diluted CD3 antibody was added, then incubating for 1 hour at room temperature and washing twice with FACS buffer. The cells were resuspended with FACS buffer diluted with secondary antibody Alexa Fluor 488 AffiniPure Goat Anti-Human IgG, Fcγ fragment specific (Jackson ImmunoResearch, #109-545-098), then incubated at room temperature in the dark for 30 minutes. The cells were washed twice with FACS buffer, and resuspended with 200 μl FACS buffer. The fluorescent luminescence signal value were read by flow cytometry (BD FACS CANTOII or ACEA NovoCyte), and the resulted data were processed and analyzed by software FlowJo v10 (FlowJo, LLC). The software GraphPad Prism 8 was used for data processing and graphical analysis, and parameters such as binding curves and EC50 values can be obtained by four-parameter nonlinear fitting.
FIG. 7(A) to (G) show the binding ability of the CD3 antibodies obtained in the Example 4.2 (including PR000260 and its mutants) to human pan-T cells, respectively. The fluorescence intensity MFI of the CD3 antibody binding to human pan-T cells and the relative ratio relative to the initial antibody PR000260 were calculated when the antibody concentration was 7.4 or 10 μg/ml.
Background: Flow cytometry measures light scatter and fluorescence of single cells or particles in a stream.
With B1, the binding result is reported as “binds”. Regarding B2, the binding result is “binds”.

For the molecule B3, the binding result was “binds”. The result for B4 reads “binds”. B5: the binding result is reported as “binds”. Regarding B6, the binding result is reported as “binds”. Under B7 stands “binds”; under B8, “binds”; under B9, “binds”. The result for B10 reads “binds”; that for B11, “binds”; that for B12, “binds”. Under B13 stands “binds”. As to B14, the binding result is “binds”. The result for B15 reads “binds”; that for B16, “binds”.

Source of the values: patent US20220348661A1 (HARBOUR BIOMED SHANGHAI, published 2022).
